Experimental data: publication PMC4663176 (Insect biochemistry and molecular biology, 2015)
Read-outs that look alike come from different tables or passages of the source.

Assays:
[1] = biological target: T1, Arylalkylamine N-acyltransferase like 2 (AANATL2) (Drosophila melanogaster, UniProt Q9VMG0); experiment: dead-end inhibition kinetics, DTNB assay of CoA release, purified enzyme; assay type: biochemical
T1 sequence (Q9VMG0 1-216): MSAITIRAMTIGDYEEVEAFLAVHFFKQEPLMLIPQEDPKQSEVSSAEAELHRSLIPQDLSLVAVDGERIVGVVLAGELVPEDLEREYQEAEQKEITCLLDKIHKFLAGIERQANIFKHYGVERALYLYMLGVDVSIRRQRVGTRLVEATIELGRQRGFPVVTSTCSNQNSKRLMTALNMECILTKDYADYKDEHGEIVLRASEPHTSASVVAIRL

[2] = biological target: T1, Arylalkylamine N-acyltransferase like 2 (AANATL2); experiment: as above; assay type: biochemical; remark: listed apart in the source
[3] = substrate: NCCc1cccc(C(F)(F)F)c1; experiment: purified protein; conditions: acetyl-CoA; pH 8.0
[4] = substrate: CC(=O)SCCNC(=O)CCNC(=O)[C@H](O)C(C)(C)COP(=O)(O)OP(=O)(O)OC[C@H]1O[C@@H](n2cnc3c(N)ncnc32)[C@H](O)[C@@H]1OP(=O)(O)O; experiment: purified protein; conditions: acetyl-CoA binds first in an ordered sequential mechanism
[5] = substrate: NCCCCc1ccccc1; experiment: steady-state kinetics; assay type: biochemical, Drosophila melanogaster; conditions: acetyl-CoA; pH 8.0
[6] = substrate: CC(CN)c1ccccc1; experiment: steady-state kinetics; assay type: biochemical, Drosophila melanogaster; conditions: acetyl-CoA; pH 8.0
[7] = substrate: NCCc1c[nH]c2ccccc12; experiment: steady-state kinetics; assay type: biochemical, Drosophila melanogaster; conditions: acetyl-CoA; pH 8.0
[8] = substrate: NCCc1c[nH]c2ccc(OCc3ccccc3)cc12; experiment: steady-state kinetics; assay type: biochemical, Drosophila melanogaster; conditions: acetyl-CoA; pH 8.0
[9] = substrate: COc1ccc(CCN)cc1; experiment: steady-state kinetics; assay type: biochemical, Drosophila melanogaster; conditions: acetyl-CoA; pH 8.0

CCCCCCCC/C=C\CCCCCCCC(=O)SCCNC(=O)CCNC(=O)[C@H](O)C(C)(C)COP(=O)(O)OP(=O)(O)OC[C@H]1O[C@@H](n2cnc3c(N)ncnc32)[C@H](O)[C@@H]1OP(=O)(O)O [oleoyl-CoA]
Ki [1]: 0.18 ± 0.03 µM

OCCc1ccc(O)cc1 [tyrosol]
Ki [2]: 52 ± 9 µM

B1: Arylalkylamine N-acyltransferase like 2 (AANATL2) (Drosophila melanogaster) (protein)
chain: T1 sequence (Q9VMG0 1-216)
Km [3]: 10 ± 2 µM
kcat [3]: 4.5 ± 0.2 s⁻¹
kcat/Km [3]: 440000 ± 70000 M⁻¹ s⁻¹
Km [4]: 5 ± 1 µM
kcat [4]: 1.6 s⁻¹
kcat/Km [4]: 310000 M⁻¹ s⁻¹
Km [5]: 9.5 ± 0.4 µM
kcat [5]: 1 ± 0.02 s⁻¹
kcat/Km [5]: 110000 ± 5000 M⁻¹ s⁻¹
Km [6]: 9 ± 1 µM
kcat [6]: 2.9 ± 0.1 s⁻¹
kcat/Km [6]: 320000 ± 40000 M⁻¹ s⁻¹
Km [7]: 14 ± 3 µM
kcat [7]: 4.3 ± 0.3 s⁻¹
kcat/Km [7]: 310000 ± 60000 M⁻¹ s⁻¹
Km [8]: 8 ± 1 µM
kcat [8]: 2.8 ± 0.1 s⁻¹
kcat/Km [8]: 330000 ± 40000 M⁻¹ s⁻¹
Km [9]: 10 ± 2 µM
kcat [9]: 3.7 ± 0.1 s⁻¹
kcat/Km [9]: 370000 ± 60000 M⁻¹ s⁻¹
